Measured values taken from article PMC3695523, “Reconstitution and characterization of eukaryotic N6-threonylcarbamoylation of tRNA using a minimal enzyme system” (Nucleic Acids Research, 2013).

Substrate: C[C@@H](O)[C@H](N)C(=O)O
Assay: HPLC nucleoside analysis of t6A formed on tRNA-Ile in reconstituted assay
Assay type: biochemical, Saccharomyces cerevisiae
Conditions: coupled two-enzyme system: Sua5 plus yeast Qri7 (30-407), 2 uM Sua5/Qri7, 20 uM tRNA-Ile, 2 mM ATP, 1 mM NaHCO3, 5 mM MnCl2, 200 mM NaCl, 50 mM Tris-HCl pH 8.0, ambient temperature, 60 min

B1: Sua5 (Saccharomyces cerevisiae S288C) (protein)
chain: MYLGRHFLAMTSKALFDTKILKVNPLSIIFSPDAHIDGSLPTITDPETEAALVEAARIIRDTDETVAFPTETVYGLGGSALNDNSVLSIYRAKNRPSDNPLITHVSSIDQLNRKVFNQPHLSGTSLFDNIPSIYRPLISSLWPGPLTILLPVPSSEHSALSKLTTADQPTFAVRIPANPVARALIALSDTPIAAPSANASTRPSPTLASHVYHDLKDKIPIILDGGACKVGVESTVVDGLCNPPTLLRPGGFTYEEIVKLGGEAWSLCKVENKKTVEKGEKVRTPGMKYRHYSPSAKVVLLVPHCEGDGILKGVDRMERLKRLIETELKANSNIKKIAILTSLKLRDSDLQSKIFNEPDFSSKTFIIERLGQSGEEIQTNLFAALRKVDENDKVDLIFVEGINEEGEGLAVMNRLRKAAANNCIQF
notes: full length; N-terminal hexa-histidine or GST tag; expressed in E. coli BL21 (DE3) CodonPlus
B1 was tested, and the Km was 0.11 ± 0.014 µM.
